Experimental findings from article PMC11857385, “Parametric Cyclic Voltammetric Analysis of an Electrochemical Aptasensor for Staphylococcus aureus Iron-Regulated Surface Determinant Protein A Detection” are described below.

For the data set, the target named is T1, IsdA (iron-regulated surface determinant protein A) (Staphylococcus aureus, UniProt A6QG31 47-316).
T1 sequence: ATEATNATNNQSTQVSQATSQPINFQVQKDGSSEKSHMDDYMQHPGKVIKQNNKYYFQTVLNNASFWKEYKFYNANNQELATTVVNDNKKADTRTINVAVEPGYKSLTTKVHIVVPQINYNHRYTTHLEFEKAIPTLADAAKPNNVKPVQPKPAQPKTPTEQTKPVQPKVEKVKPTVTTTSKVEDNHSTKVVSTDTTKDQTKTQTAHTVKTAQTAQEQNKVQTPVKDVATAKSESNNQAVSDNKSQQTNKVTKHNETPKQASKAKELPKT
Put plainly: cyclic voltammetry and EIS; pH 7.5, 25 °C, 5 mM [Fe(CN)6]3-/4-, 0.1 M KCl; Aptamer (5 µM, 4 h) immobilized on SPCE/AuNPs, 2-MCE block; CV in 5 mM [Fe(CN)6]3-/4-, 0.1 M KCl, pH 7.5 (also 4.5, 10.5), 25 °C (also 4, 37 °C); zeta potential in water, room temperature. Particulars: label: FAM dye applied in imaging; 1 strand.

Consider GCGCACGCGUGUGUAGUACACACGAUCGCGCGCACAAUAU (ssRNA, amine for coupling to AuNP carboxyl groups implied; position not stated) [anti-IsdA aptamer], for which the binding result is on record as “binds”.
